Residue numbers refer to the chain shown, from its start. Names and notes keep the numbering of the source. One block for each binder: values may come before it.
Assays:
[1] = biological target: T1, IL-18 receptor (IL-18R) on HEK-Blue IL18R reporter cells (UniProt Q13478 19-541; O95256 20-599, limits assumed); experiment: cell-based or functional assay
T1 sequence (looked up) 1: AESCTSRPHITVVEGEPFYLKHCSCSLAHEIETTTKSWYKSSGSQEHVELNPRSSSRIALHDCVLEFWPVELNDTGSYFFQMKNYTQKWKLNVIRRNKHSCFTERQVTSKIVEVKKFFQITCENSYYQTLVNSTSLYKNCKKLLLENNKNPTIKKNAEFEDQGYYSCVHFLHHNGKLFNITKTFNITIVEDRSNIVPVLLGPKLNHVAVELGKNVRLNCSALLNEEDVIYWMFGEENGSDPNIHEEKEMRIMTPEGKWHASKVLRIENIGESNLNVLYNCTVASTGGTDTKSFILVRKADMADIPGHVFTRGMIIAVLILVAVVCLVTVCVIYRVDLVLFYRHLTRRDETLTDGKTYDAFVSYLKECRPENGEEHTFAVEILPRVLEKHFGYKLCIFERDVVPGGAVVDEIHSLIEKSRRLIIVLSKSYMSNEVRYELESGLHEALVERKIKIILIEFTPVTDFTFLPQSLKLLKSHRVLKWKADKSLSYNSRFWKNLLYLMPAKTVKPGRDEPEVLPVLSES
T1 sequence (looked up) 2: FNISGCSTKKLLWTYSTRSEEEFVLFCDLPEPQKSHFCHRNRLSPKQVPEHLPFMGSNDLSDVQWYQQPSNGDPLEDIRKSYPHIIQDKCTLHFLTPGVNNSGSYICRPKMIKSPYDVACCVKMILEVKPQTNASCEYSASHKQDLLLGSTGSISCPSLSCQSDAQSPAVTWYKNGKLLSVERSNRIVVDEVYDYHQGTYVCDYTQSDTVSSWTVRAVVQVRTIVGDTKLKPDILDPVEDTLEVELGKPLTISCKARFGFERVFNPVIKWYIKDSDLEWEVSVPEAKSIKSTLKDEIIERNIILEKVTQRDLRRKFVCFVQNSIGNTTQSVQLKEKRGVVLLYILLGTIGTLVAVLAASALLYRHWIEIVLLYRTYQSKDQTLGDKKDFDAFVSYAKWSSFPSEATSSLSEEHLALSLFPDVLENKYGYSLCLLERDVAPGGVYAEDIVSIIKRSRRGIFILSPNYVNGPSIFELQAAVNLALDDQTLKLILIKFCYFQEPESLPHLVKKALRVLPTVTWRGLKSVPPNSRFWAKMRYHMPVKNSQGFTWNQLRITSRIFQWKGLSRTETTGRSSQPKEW

Fc fused human IL-18Rα = biological target: T2, Fc fused human IL-18Rα (human, UniProt Q13478 19-329, limits assumed); experiment: SPR, Fc-IL-18Rα captured, 1:1 fit
T2 construct: also called IL-18Rα monomer; human IL-18 receptor alpha (CD218a); not shown: Fc
T2 sequence (looked up): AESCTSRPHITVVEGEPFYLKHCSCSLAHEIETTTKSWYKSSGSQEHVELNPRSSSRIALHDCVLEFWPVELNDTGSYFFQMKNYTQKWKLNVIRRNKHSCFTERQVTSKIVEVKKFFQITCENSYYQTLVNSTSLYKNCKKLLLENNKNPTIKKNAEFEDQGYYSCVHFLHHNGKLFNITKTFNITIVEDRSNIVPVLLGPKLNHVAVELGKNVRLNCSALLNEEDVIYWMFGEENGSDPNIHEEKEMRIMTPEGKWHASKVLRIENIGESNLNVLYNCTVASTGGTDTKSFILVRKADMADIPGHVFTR
Method: (§1) The interaction of the wild type and of modified IL-18 polypeptides with human IL-18 receptor subunits are measured with Surface Plasmon Resonance (SPR) technology. Anti-human IgG antibodies are bound by amine coupling onto a CM5 chip to capture 6 µg/mL of Fc fused human IL-18Rα, […] of Fc fused human IL-18Rβ, or […] of Fc fused human IL-18BP isoform a (IL-18BPa) for 30 min before capture. In other settings, […] of alpha and beta IL-18 receptors are mixed and pre-incubated for 30 min before capture of the alpha/beta heterodimer IL-18 receptor.
(§2) The kinetic binding of the IL-18 analytes are measured with a Biacore 8K instrument in two fold serial dilutions starting at […] down to 0.98 nM. Regeneration of the surface back to amine coupled anti IgG antibody is done after every concentration of analyte. To measure the protein association to the receptors, the samples are injected with a flow rate of […] for 60 s, followed by 300 s buffer only to detect the dissociation. The used running buffer is 1×PBS with 0.05% Tween20. The relative response units (RU, Y-axis) are plotted against time (s, X-axis) and analyzed in a kinetic 1:1 binding model for the monomer receptor binding and for the binding to the IL-18BP. A kinetic heterogenous ligand fit model is applied for the alpha/beta heterodimer binding.

[2] = biological target: T1, IL-18 receptor (IL-18R) on HEK-Blue …; experiment: cell-based or functional assay; remark: listed apart in the source
[3] = biological target: T3, IL-18Rα/β heterodimer (Fc fused human IL-18Rα mixed with Fc fused human IL-18Rβ) (human, UniProt Q13478 19-329; O95256 20-356, limits assumed); experiment: SPR, Fc-IL-18Rα/β captured, heterogeneous ligand fit
T3 construct: Alpha and beta Fc fusions were mixed and pre-incubated for 30 min before capture on anti-human IgG; also called alpha/beta heterodimer IL-18 receptor; heterodimeric human IL-18 receptor alpha (CD218a) and IL-18R accessory protein (IL-18RAP/CDw218b); not shown: Fc
T3 sequence (looked up) 1: T2 sequence (looked up)
T3 sequence (looked up) 2: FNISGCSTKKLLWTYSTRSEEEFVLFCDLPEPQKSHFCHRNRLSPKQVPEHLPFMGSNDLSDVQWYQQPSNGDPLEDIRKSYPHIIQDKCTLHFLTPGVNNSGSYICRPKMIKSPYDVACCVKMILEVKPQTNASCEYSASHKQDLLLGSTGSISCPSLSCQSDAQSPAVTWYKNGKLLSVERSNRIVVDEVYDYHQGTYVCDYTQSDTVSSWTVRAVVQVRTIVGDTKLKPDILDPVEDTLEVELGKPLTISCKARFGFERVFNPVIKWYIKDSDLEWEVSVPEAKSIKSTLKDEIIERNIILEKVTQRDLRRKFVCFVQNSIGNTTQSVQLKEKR
Method: as §1, §2

EC50, HEK-Blue IL18R reporter [1]: 53 pM
Kd (Fc fused human IL-18Rα): 30300 pM
koff (Fc fused human IL-18Rα): 0.0536 s⁻¹
kon (Fc fused human IL-18Rα): 1.77e+06 M⁻¹ s⁻¹
EC50 (read off the curve); SEAP reporter in HEK-Blue IL18R cells (OD 620 nM) [2]: ~0.05 pM
Kd [3]: 490 pM
koff [3]: 0.000311 s⁻¹
kon [3]: 866000 M⁻¹ s⁻¹
B1: IL-18 variant SEQ ID NO: 30 (E6K, V11I, C38A, K53A, T63A, C76A, C127A) (ligand)
chain: YFGKLKSKLSIIRNLNDQVLFIDQGNRPLFEDMTDSDARDNAPRTIFIISMYADSQPRGMAVAISVKCEKISTLSAENKIISFKEMNPPDNIKDTKSDIIFFQRSVPGHDNKMQFESSSYEGYFLAAEKERDLFKLILKKEDELGDRSIMFTVQNED

EC50, HEK-Blue IL18R reporter [1]: 268 pM
Kd (Fc fused human IL-18Rα): 17800 pM
koff (Fc fused human IL-18Rα): 0.0165 s⁻¹
kon (Fc fused human IL-18Rα): 1.77e+06 M⁻¹ s⁻¹
EC50 (read off the curve); SEAP reporter in HEK-Blue IL18R cells (OD 620 nM) [2]: ~0.3 pM
Kd [3]: 660 pM
koff [3]: 0.000815 s⁻¹
kon [3]: 1.24e+06 M⁻¹ s⁻¹
B2: IL-18 variant SEQ ID NO: 59 (E6K, C38A, K53A) (ligand)
chain: B1 chain with I11V, A63T, A76C, A127C

From patent publication US20250186594A1 (BRIGHT PEAK THERAPEUTICS, published 2025)
